Patent publication US20180172692

What was measured:
β10* = target: T1, β10*
T1 chain: VSGWRLFKKIS

β9 = target: T2, β9
T2 chain: GSMLFRVTINS

B1: Δ11S (protein)
chain: MVFTLEDFVGDWEQTAAYNLDQVLEQGGVSSLLQNLAVSVTPIQRIVRSGENALKIDIHVIIPYEGLSADQMAQIEEVFKVVYPVDDHHFKVILPYGTLVIDGVTPNMLNYFGRPYEGIAVFDGKKITVTGTLWNGNKIIDERLITPD
Question: Which “luminescence (furimazine substrate), fragments each at 1 µM” value (β10*) does the source give for B1 here?
Answer: the mixture of all three components is the only combination that produced significant luminescence

Question: And the “luminescence (furimazine substrate), fragments each at 1 µM” value (β9)?
Answer: the mixture of all three components is the only combination that produced significant luminescence
